Test system: T1, CadR (Pseudomonas aeruginosa), ORF:ef015ded
T1 sequence: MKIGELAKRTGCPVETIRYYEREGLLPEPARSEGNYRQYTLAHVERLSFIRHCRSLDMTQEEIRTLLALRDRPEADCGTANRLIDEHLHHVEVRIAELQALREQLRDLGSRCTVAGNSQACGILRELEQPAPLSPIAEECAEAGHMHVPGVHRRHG
Test: EMSA
Conditions: EMSA: 10 mM Tris pH 8.0, 40 mM KCl, 10 mM MgCl2, 1 mM DTT, 5% glycerol, 250 nM CadR, 25 ng DNA, +/- Zn or EDTA, 30 min room temperature, gel at 4 C …

Sequence	binding
CCATGATCATGTCCGTGACCGTGACCGTGACAGCAAGTGTCGGCGTGTTCGTGGCTCATGGAAACAATTCCCGTTTGACGTGTTGGGTGCGATTGCACACCCTGTAGCAACTACAGAGTCAAGCGGTACTGCCAATTCGGGTAGCCGCGTCGGCGATTGGAGGAGGGTTGGCATGAAGATCGGTGAGCTGGCGAAGAGAACCGGTT (double strand) [pcadA WT promoter (EMSA)]	binds
GCTTCCGGTCAGCAGCAACGCCCATTTCAGGCGGGTCGAGTTGGTCTGGGCGAAGCTGTGCTCGTGTCCGGCGCTCATGGCGGCTCCTGTGGGGCGGTGGCGGCAGCACCAGCCTACAGGATAGGCAATTGCAAAACTGTCATGCGCCGGGCCGCTCTGGCGCGGCGTCCGCCGCTCCGCTAACCTGCGGCTCAGGCGCGGCCGCAGCCGCGCACGGAACGAGGGGGACGCATGACTCAACAGCACGA (double strand) [pczcD]	no binding

— publication PMC7242495
